These results are taken from PMC9741652, “CRL2^ZER1/ZYG11B recognizes small N-terminal residues for degradation” (Nature Communications, 2022).

One experiment deals with T1, SFLHVGQD peptide.
T1 chain: SFLHVGQD
In words: ITC. As to conditions: chain shown with the change;; parent: 1.3.

For experiment [1], the target named is ZYG11B (residues 490–728), Q9C0D3. Kind of experiment: ITC. As to conditions: chain shown with the change;; parent: 2.5 µM.
ZYG11B (residues 490–728), Q9C0D3, sequence (Q9C0D3 other isoform, or with tags, fused parts or gaps): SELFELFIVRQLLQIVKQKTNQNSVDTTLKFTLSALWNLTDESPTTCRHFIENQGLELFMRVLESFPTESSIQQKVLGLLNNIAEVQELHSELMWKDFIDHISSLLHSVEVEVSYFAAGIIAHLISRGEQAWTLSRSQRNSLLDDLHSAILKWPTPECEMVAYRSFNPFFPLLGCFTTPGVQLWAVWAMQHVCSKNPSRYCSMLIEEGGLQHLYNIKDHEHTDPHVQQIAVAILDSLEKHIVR

B1: ZER1 (residues 469–766), Q7Z7L7 D556A (protein)
chain: MEELEELEFQYRRVNELLLSILNPTRQDESIQRIAVHLCNALVCQVDNDHKEAVGKMGFVVTMLKLIQKKLLDKTCDQVMEFSWSALWNITAETPDNCEMFLNFNGMKLFLDCLKEFPEKQELHRNMLGLLGNVAEVKELRPQLMTSQFISVFSNLLESKADGIEVSYNACGVLSHIMFDGPEAWGVCEPQREEVEERMWAAIQSWDINSRRNINYRSFEPILRLLPQGISPVSQHWATWALYNLVSVYPDKYCPLLIKEGGMPLLRDIIKMATARQETKEMARKVIEHCSNFKEENMDTSR
As usually defined, the Kd is the equilibrium constant for the complex coming apart. Consider B1, for which the Kd with SFLHVGQD peptide was more than 100 µM.

B2: ZER1 (residues 469–766), Q7Z7L7 E600A (protein)
chain: MEELEELEFQYRRVNELLLSILNPTRQDESIQRIAVHLCNALVCQVDNDHKEAVGKMGFVVTMLKLIQKKLLDKTCDQVMEFSWSALWNITDETPDNCEMFLNFNGMKLFLDCLKEFPEKQELHRNMLGLLGNVAAVKELRPQLMTSQFISVFSNLLESKADGIEVSYNACGVLSHIMFDGPEAWGVCEPQREEVEERMWAAIQSWDINSRRNINYRSFEPILRLLPQGISPVSQHWATWALYNLVSVYPDKYCPLLIKEGGMPLLRDIIKMATARQETKEMARKVIEHCSNFKEENMDTSR
B2: the equilibrium dissociation constant (Kd) with SFLHVGQD peptide is more than 100 µM.

B3: GFLHVGQD peptide G1V (peptide)
chain: VFLHVGQD
With B3, the Kd in experiment [1] is more than 100 µM.
